Measured values from publication PMC9186069.

How the values were obtained:
[1] = target: MBP-FbpA-N (Borrelia miyamotoi strain FR64b); assay: SPR; MBP-Fbp-N fusion proteins immobilised by amine coupling on CMD200 chips; human plasma fibronectin injected, twofold dilution series up to 500 nM, multi-cycle; Biacore T200, 25°C, 30 μL/min, HBS-T; steady-state affinity fits
[2] = target: serum C1r (human (endogenous in normal human serum))
[3] = target: FbpA-C (Borrelia miyamotoi strain FR64b) (UniProt W5SFZ1); assay: SPR; FbpA-C, FbpB-C or FbpA DA-C immobilised by amine coupling; C1r-CCP2-SP injected, twofold dilution series 0-100 nM, multi-cycle; Biacore T200, 25°C, 30 μL/min; kinetic fits

Substance: human fibronectin (from UniProt P02751) (natural protein)
- Kd [1]: 170 nM

Substance: FbpA-C (from UniProt W5SFZ1 222-371) (domain or fragment)
- IC50 of inhibition of classical pathway complement activation (ELISA-based assay, C4b deposition, normal human serum) [2]: 23 nM
- IC50 of inhibition of classical pathway hemolysis (pre-sensitized sheep erythrocytes, 2% normal human serum) [2]: 220 nM

Substance: C1r-CCP2-SP (domain or fragment)
- Kd [3]: 0.9 nM
- koff [3]: 0.00031 s⁻¹
- kon [3]: 330000 M⁻¹ s⁻¹

Substance: FbpB-C (from UniProt A0A0U2RP97 264-432) (domain or fragment)
- IC50 of inhibition of classical pathway complement activation (ELISA-based assay, C4b deposition, normal human serum) [2]: 1900 nM
